From patent US20230116446A1 come the findings set out here.

The experiment deals with CD122/CD132 complex (UniProt P14784). In words: cell-based or functional assay.
CD122/CD132 complex, sequence (P14784 27-551 limits assumed, chain 1 of 2): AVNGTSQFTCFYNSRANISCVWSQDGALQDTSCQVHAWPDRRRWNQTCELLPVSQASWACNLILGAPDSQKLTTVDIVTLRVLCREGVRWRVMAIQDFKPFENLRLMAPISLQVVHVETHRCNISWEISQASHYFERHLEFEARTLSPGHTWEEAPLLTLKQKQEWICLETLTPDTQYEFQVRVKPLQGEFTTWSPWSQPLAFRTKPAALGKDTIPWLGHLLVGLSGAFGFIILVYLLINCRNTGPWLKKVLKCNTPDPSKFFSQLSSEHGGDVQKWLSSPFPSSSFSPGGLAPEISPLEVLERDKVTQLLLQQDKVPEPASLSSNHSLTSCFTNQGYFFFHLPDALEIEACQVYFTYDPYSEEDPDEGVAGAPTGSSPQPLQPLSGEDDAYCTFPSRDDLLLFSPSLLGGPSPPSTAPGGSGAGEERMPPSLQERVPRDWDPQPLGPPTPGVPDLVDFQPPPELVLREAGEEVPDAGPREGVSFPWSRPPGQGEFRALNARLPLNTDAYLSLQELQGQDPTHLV
CD122/CD132 complex, sequence (P31785 23-369 limits assumed, chain 2 of 2, further chain): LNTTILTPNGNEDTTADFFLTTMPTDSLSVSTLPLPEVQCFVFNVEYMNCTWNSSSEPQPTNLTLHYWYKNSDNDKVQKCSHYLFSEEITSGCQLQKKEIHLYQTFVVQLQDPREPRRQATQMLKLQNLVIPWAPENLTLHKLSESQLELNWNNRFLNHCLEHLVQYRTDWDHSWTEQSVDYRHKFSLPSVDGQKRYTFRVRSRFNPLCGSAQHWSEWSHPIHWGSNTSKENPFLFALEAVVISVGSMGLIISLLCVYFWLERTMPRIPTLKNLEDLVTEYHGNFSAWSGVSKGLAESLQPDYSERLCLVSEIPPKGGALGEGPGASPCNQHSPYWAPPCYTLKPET

Consider “Fc-IL15×Fc-IL15Rα sushi domain fusion protein (Fc fusion)”, for which the EC50, IL2 reporter assay (HEK 293 reporter cells, SEAP, absorbance at 650 nM) is 66 pM.
The figure for “Recombinant IL-15 (PeproTech 200-15) (from UniProt P40933 49-162) (ligand)” is 21 pM.
